The values that follow come from the supplement of paper PMC9170038.

The test system of the data set is MS2 coat protein. The data set is described as follows: apparent KD of MS2 coat protein; designed switch direction (-1 OFF switch, 1 ON switch): -1; higher = weaker reporter binding. The procedure, abridged:
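Normalised cluster fluorescence was curve-fitted, and each design's median over clusters is its apparent KD. Before this, SNAP-549-labelled MS2 coat protein was titrated from 0.7 or 1.5 nM, doubling to 3 µM, over RNA switches transcribed on Illumina chips by stalled E. coli RNA polymerase. Titrations had no input, 200 uM small-molecule ligand, or an oligonucleotide input, and steps lasted 0.8–1.5 h (lowest) to 10–20 min (highest).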

Where [1] appears, read: input ligand: microRNA oligo, concentration not stated.
[2] abbreviates: Eterna round: R95, input ligand: FMN 200 uM.
[3] abbreviates: Eterna round: R95, input ligand: microRNA oligo, concentration not stated.
Where [4] appears, read: Eterna round: R95, input ligand: none.

In the case of “CAAAGAACAUGAGGAUCACCCAUGUGAACCUUCGUUCGACCUCAGGAUAUCCGCCACCGUCCGCAGGAGAAGGGAGGGAAAAUA [Isinar] (Eterna round: R96, puzzle: Exclusion NG 3)”, the “apparent KD of MS2 coat protein” value by setting is: (input ligand: FMN 200 uM) 138 nM; under setting [1], 64.9 nM; (input ligand: none) 72.8 nM.
Consider “CAGGCUACAAACGCUCGUCACAUGAGGAUCACCCAUGUACGCCUCUAUCGUAAGUCCAGCGUUCGCUGGCAAGGGUA [Eternabot (Original) Solution 19] (Eterna round: R97, puzzle: Sensor, turn-off variant 1)”, for which the “apparent KD of MS2 coat protein” value runs as follows: (input ligand: FMN 200 uM) 47.5 nM; (input ligand: none) 56.2 nM.
Regarding “GCAGCAUAGUGUAAUAAACACAUACAUGAGGAUCACCCAUGUGAGGAUAUGGACUGGAUUACAGUCCAGAAGGCACAAAGCUGC [Zipper Style 1] (Eterna round: R96, puzzle: Exclusion NG 3)”, the “apparent KD of MS2 coat protein” value by setting is: (input ligand: FMN 200 uM) 18.7 nM; under setting [1], 15.9 nM; (input ligand: none) 17.8 nM.
For the sequence “UGAUGCUCAGGAUAUACAUCAGUGUUCAGGCCAAAAGGCGGACAUGAGGAUCACCCAUGUAGAAGGGAGCGUUC [Eternabot (L1) Solution 13] (Eterna round: R97, puzzle: Exclusion 2)”, the “apparent KD of MS2 coat protein” value runs as follows: (input ligand: FMN 200 uM) 900 nM; (input ligand: none) 380 nM.
On to “CUGAGCAGACGGAGAUCCAACAUGAGGAUCACCCAUGUCUCAAAAGCUUUUUGCUCGUCUUAUCCUCCUCUGCUCAC [Geesbeleri] (puzzle: Sensor v3, turn-off variant 1)”, for which the “apparent KD of MS2 coat protein” value is, setting by setting: under setting [2], 11.2 nM; under setting [3], 21.8 nM; under setting [4], 12.5 nM.
On to “AAUAUACUAGGAUAUACAUGAGGAUCACCCAUGUCCGCAUAUUGGGAUCUUAGACCUUGUAGAAGGAGUGGACG [Eternabot (L2) Solution 15] (Eterna round: R97, puzzle: Exclusion 3)”, for which the “apparent KD of MS2 coat protein” value is, setting by setting: (input ligand: FMN 200 uM) 99.2 nM; (input ligand: none) 97.6 nM.
As for “CUUUUGUGAGGAUAUCAGUAGUAAUACAAUAGUAUUACUGCUGAGAAGGCACAUGAGGAUCACCCAUGUUCCUC [Ex4 344 Omei mod 10] (puzzle: Exclusion 4)”, the “apparent KD of MS2 coat protein” value under setting [3] stood at 53.6 nM.
As to “CGGUGCUCGUGGAAACAUGAGGAUCACCCAUGUAGAGUUAGCGAGGAUAUCGGUAACACAUAUCACGAGAAGGCGCGAACCUGA [Ex NG3 #30] (Eterna round: R96, puzzle: Exclusion NG 3)”, the “apparent KD of MS2 coat protein” value reads like this: (input ligand: FMN 200 uM) 27.8 nM; under setting [1], 11.7 nM; (input ligand: none) 16.3 nM.
Regarding “UCCGUACAUGAGGAUCACCCAUGUCAGGAUAUGCAGACCGGCCGCCAGCGACCGGCCCGCAGAAGGGACAUAGA [EX1 B.4] (Eterna round: R97, puzzle: Exclusion 1)”, the “apparent KD of MS2 coat protein” value was determined as 140 nM (input ligand: FMN 200 uM) and 30.7 nM (input ligand: none).
Regarding “AUAAAAGAGUUAGGAUAUCGGAAAGGAAGUGUACGAGAAGGAACGGUAUCCUCGGAAAGACAUGAGGAUCACCCAUGUAGAAAA [PowerStrip EXNG 1.6] (Eterna round: R96, puzzle: Exclusion NG 1)”, the “apparent KD of MS2 coat protein” value (input ligand: FMN 200 uM) is 34.9 nM, the “apparent KD of MS2 coat protein” value under setting [1] amounted to 23.4 nM and the “apparent KD of MS2 coat protein” value (input ligand: none) amounted to 35.4 nM.
“GAUCAUGCAGGAUAUACAGUUUCCAUGAAAACAUGGACCUCACAUGAGGAUCACCCAUGUAGAAGGGCAUGAUC [Omei Ex2 A27] (Eterna round: R97, puzzle: Exclusion 2)”: the “apparent KD of MS2 coat protein” value (input ligand: FMN 200 uM) amounted to 982 nM and the “apparent KD of MS2 coat protein” value (input ligand: none) came out at 443 nM.
On to “AUUAAAAUAUAGGAUAUCGAAUUUAUUAUUUAACGAGAAGGAUGAACAUGAGGAUCACCCAUGUGGUAUCAUGG [Mat - Exclusion 6 - JL Mod - D35] (puzzle: Exclusion 6)”, for which the “apparent KD of MS2 coat protein” value is, setting by setting: under setting [2], 177 nM; under setting [3], 156 nM; under setting [4], 189 nM.
Take “UCCUUACAUGAGGAUCACCCAUGUCAGGAUAUCUCCACACUGCGCUUGCGCAGUGUAUAGAGAAGGGACAGGCU [JL ViennaUCT Aner mod 6] (puzzle: Exclusion 1)”: the “apparent KD of MS2 coat protein” value was determined as 33.4 nM under setting [2], 26.5 nM under setting [3] and 35.8 nM under setting [4].
In the case of “UUUCCUUGUGUGAGGAUAUACUUGUUUGUGUUUUUGUAGAAGGCACAUGAGGAUCACCCAUGUACUCUUUCCUG [JR_BME4_Sub023] (Eterna round: R96, puzzle: Brourd's mod of Exclusion 4)”, the “apparent KD of MS2 coat protein” value was 68.6 nM (input ligand: FMN 200 uM), 34.7 nM under setting [1] and 37.7 nM (input ligand: none).
Regarding “UAUGGUUAAGUCAGGAUAUGCACGCAGAUUACAAAGCAGAAGGGACAUGAGGAUCACCCAUGUACACUCGUGUU [Ex4 #79] (Eterna round: R97, puzzle: Brourd's mod of Exclusion 4)”, the “apparent KD of MS2 coat protein” value by setting is: (input ligand: FMN 200 uM) 25.9 nM; (input ligand: none) 36.1 nM.
The like results for “AUCCUACAUGAGGAUCACCCAUGUCAGGAUAUCCAAGAAAUCUGGCCGUAUCGGCCAGGGAGAAGGGAUAUGGG [jl-ex1-4.64 ViennaUCT mod] (Eterna round: R97, puzzle: Exclusion 1)” were, in that order, 57.7 nM and 74.2 nM.
The like results for “UCGUAGGAAGGAUAUGCAUGCUUUGAUAAAUCCAGGCCUGGACAUGAGGAUCACCCAUGUAGAAGGUCCACGGA [EX2 B.11] (Eterna round: R97, puzzle: Exclusion 2)” were, in that order, 36.6 nM and 31.4 nM.
Regarding “CGUCUACCAAAACCGAACAACAUGAGGAUCACCCAUGUCACUCCGCCUUAAACCUACGGAGUAAAGUGGGCGCAAAA [Vesocegeer] (Eterna round: R96, puzzle: Sensor v2, turn-off variant)”, the “apparent KD of MS2 coat protein” value was 32.2 nM (input ligand: FMN 200 uM), 28.5 nM under setting [1] and 33.2 nM (input ligand: none).
For “ACUUACUGAGGAUAUACAUAGAUUUACAUGAGGAUCACCCAUGUUCCUCUAUGUAUAUAUGUAGAAGGCAGAAGUG [Mat - Exclusion 5 - JL Mod - D36] (Eterna round: R97, puzzle: Exclusion 5)”, the “apparent KD of MS2 coat protein” value was found to be 137 nM (input ligand: FMN 200 uM) and 33.3 nM (input ligand: none).
For “CUUUUGUGAGGAUAUCAGUAGUAAUUAAAUAAAAUUACUACUGAGAAGGCACAUGAGGAUCACCCAUGUUCCUC [salish99_ex3_r3_077] (puzzle: Exclusion 4)”, the “apparent KD of MS2 coat protein” value under setting [3] is 39.5 nM.
Consider “UCCUGGUCAGGAUAUUGCAGGUCGUACGCUCUGAGUCUAGGCAAGAAGGGACAUGAGGAUCACCCAUGUGGGCG [Eternabot (L1) Solution 4] (Eterna round: R97, puzzle: Exclusion 4)”, for which the “apparent KD of MS2 coat protein” value reads like this: (input ligand: FMN 200 uM) 406 nM; (input ligand: none) 187 nM.
In the same order, the values of “AAAUUGGUAGAGGAUAUCGGACAGGAUUUACUGCGAGAAGGCUGCACAUGAGGAUCACCCAUGUUUUGUUGCGA [EX6 #34] (Eterna round: R97, puzzle: Exclusion 6)” are 23.9 nM and 25.7 nM.
Turning to “AGGUGUAGAGGAUAUACAGUGUAUUACAUGAGGAUCACCCAUGUCCUUCAAUGGGUAUCAGUAGAAGGCUACACCA [Omei Ex5 C1] (Eterna round: R97, puzzle: Exclusion 5)”, the “apparent KD of MS2 coat protein” value runs as follows: (input ligand: FMN 200 uM) 1060 nM; (input ligand: none) 485 nM.
With “UCUUAUUGCAAGGAUAUGCAAAUUAUUUUUUAAGCAGAAGGUGCAACAUGAGGAUCACCCAUGUUUCCGGGAAA [JR_E6_Sub039] (puzzle: Exclusion 6)”, the “apparent KD of MS2 coat protein” value under setting [3] worked out at 23.9 nM.
In the case of “AUGAGAGCAGGAUAUGCAGGUGUGCCGGAAGAAAGAAGAAGACAUGAGGAUCACCCAUGUAGAAGGGCUAGCCC [Bibidi] (Eterna round: R96, puzzle: Exclusion 2)”, the “apparent KD of MS2 coat protein” value under setting [1] stood at 15.2 nM.
As to “AUCAAAUUAAAUACAGAUCACAUGAGGAUCACCCAUGUCGUACGAGUGCAGAUCUUUGAAGCUGGCUCGUCUAAGUG [Eternabot (L2) Solution 21] (Eterna round: R97, puzzle: Sensor, turn-off variant 1)”, the “apparent KD of MS2 coat protein” value by setting is: (input ligand: FMN 200 uM) 154 nM; (input ligand: none) 165 nM.
“UCUAUGAUGCGAGGAUAUCGACCAUUCCUCUUUACAUGAGGAUCACCCAUGUUCGUACGCUACAACGAGAAGGCGCACUAAGAU [JR_ExcNG2_Sub059] (Eterna round: R96, puzzle: Exclusion NG 2)”: the “apparent KD of MS2 coat protein” value (input ligand: FMN 200 uM) was found to be 438 nM, the “apparent KD of MS2 coat protein” value under setting [1] came to 101 nM and the “apparent KD of MS2 coat protein” value (input ligand: none) came out at 194 nM.
In the same order, the values of “ACAAUUAUGACAGGAUAUAGUUUUUGUUGGUCACUAGAAGGGUCUAUGCACAUGAGGAUCACCCAUGUUCUUUUUAUUUGCGAU [JR_ExcNG1_Sub017] (Eterna round: R96, puzzle: Exclusion NG 1)” are 29.9 nM, 27.1 nM and 39.9 nM.
For the sequence “AGAUAGUCAGGAUAUUAGUGGUGGAGGGAUAAUUUUAUUUUUGAGAAGGGACAUGAGGAUCACCCAUGUAAUAU [JR_Ex4_Sub064] (Eterna round: R97, puzzle: Exclusion 4)”, the “apparent KD of MS2 coat protein” value runs as follows: (input ligand: FMN 200 uM) 33.3 nM; (input ligand: none) 43.5 nM.
Consider “GCCAGAGCAGGAUAUCUAAUGUAUCACAUGAGGAUCACCCAUGUCCAGCGAAAGCUGGAGGGAGAAGGGCUCUGGC [Fiskers Ex 5 - 20] (puzzle: Exclusion 5)”, for which the “apparent KD of MS2 coat protein” value is 49.9 nM under setting [2], 105 nM under setting [3] and 106 nM under setting [4].
Regarding “AAUACAAGCUAUUGAUCCCACAUGAGGAUCACCCAUGUAGCUGGCGGUGACACCUCCUUUACGAUAGCUCGUCUUAU [Sensor-V1 #55] (Eterna round: R97, puzzle: Sensor, turn-off variant 1)”, the “apparent KD of MS2 coat protein” value is, setting by setting: (input ligand: FMN 200 uM) 604 nM; (input ligand: none) 1200 nM.
